Several values for one entry are separate records, joined by “and”; a condition that tells them apart may be missing. Identical values can stand only once.
Legend:
[1] = target: interleukin-4 receptor alpha (IL-4Rα); assay: binding affinity, method not stated
[2] = target: T1, fibroblast growth factor receptor 3 (FGFR3); assay: binding affinity, method not stated
T1 chain: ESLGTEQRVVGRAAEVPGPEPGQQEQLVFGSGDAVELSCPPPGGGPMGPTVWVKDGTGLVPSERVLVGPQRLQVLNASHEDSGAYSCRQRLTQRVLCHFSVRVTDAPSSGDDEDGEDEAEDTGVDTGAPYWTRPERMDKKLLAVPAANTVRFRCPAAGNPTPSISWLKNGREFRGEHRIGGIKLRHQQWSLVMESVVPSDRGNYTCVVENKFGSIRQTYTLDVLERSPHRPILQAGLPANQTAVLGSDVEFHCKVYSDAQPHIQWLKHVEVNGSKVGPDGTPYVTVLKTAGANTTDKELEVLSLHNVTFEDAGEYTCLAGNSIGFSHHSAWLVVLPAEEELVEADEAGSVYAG

interleukin-4 receptor alpha (IL-4Rα), sequence (chain, as listed by the source): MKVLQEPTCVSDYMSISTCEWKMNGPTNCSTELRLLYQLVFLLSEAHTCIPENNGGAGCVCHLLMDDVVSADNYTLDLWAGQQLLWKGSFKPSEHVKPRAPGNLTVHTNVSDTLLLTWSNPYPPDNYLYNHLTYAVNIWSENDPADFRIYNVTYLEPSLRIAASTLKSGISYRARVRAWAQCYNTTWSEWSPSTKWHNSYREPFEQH

Row | Binder | Kd [1] | Kd [2]
1 | KLAKLAKKLAKLAK [peptide "I", binding motif for IL-4Rα, KLAKLAKKLAKLAK] | < 60000 nM and 55900 nM | –
2 | VSPPLTLGQLLS [peptide "F", binding motif for FGFR3, VSPPLTLGQLLS] | – | ~1000 nM and 1000 nM

Source: patent US20250387497A1 (PURDUE RESEARCH FOUNDATION, published 2025)
